Data reported in publication PMC9352680, “A comprehensive thermodynamic model for RNA binding by the Saccharomyces cerevisiae Pumilio protein PUF4”.
Positions count from the first letter of the chain named. Numbers in names are those of the source.

T1: PUF4 RNA-binding domain (Saccharomyces cerevisiae, UniProt P25339 537-888)
T1 sequence: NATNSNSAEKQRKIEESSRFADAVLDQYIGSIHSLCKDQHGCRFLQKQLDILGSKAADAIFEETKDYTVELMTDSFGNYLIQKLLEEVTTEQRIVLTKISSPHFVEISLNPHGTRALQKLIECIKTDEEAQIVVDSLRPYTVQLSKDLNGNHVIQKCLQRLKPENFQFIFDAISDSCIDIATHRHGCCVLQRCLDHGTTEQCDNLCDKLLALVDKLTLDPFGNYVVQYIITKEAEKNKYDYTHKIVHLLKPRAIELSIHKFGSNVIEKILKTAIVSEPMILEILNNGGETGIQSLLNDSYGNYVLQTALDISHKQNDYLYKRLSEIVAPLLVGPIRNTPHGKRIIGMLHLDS

B1: Ib_S2_P3E.1_K3.1_C3.1_H3.1_[T3C]_A3.1_F3.1_[A8C]_T3.1 (ssRNA)
RNA: UUUGAUUAAUAUGAUAUCGUUCUUUCUUGCAUAUCUUCUUUCUCGAUAUCAUAUUAAUCUUU
B2: Ib_S2_P3E.1_K3.1_C3.1_H3.1_[A4G]_A3.1_F3.1_[A8C]_T3.1 (ssRNA)
RNA: B1 RNA with C30U, A31G
B3: Ib_S2_P3E.1_K3.1_C3.1_H3.1_[A4C]_A3.1_F3.1_[A8C]_T3.1 (ssRNA)
RNA: B1 RNA with C30U, A31C

Target: T1, PUF4 RNA-binding domain
Assay: Mg; RNA-MaP; 20 mM Na-HEPES pH 7.4, 30 mM KOAc, 0.75 mM MgCl2, 0.1% Tween-20, 5% glycerol, 0.1 mg/mL BSA, 2 mM DTT; 25 C; 0.0125-409.6 nM protein
Settings: tags: N-His6-TEV cleaved; C-SNAP kept, Cy3B-labelled; label: tethered on chip by stalled RNA polymerase

Binder | Kd
UCUCUUUGUAUUAUCCUUAUCUCUU (ssRNA) [Ie_S1_P5E.1_K5.1_C5.1_H5.1_A5.1_F5.1_[+8CCT]_T5.1] | 20.7 nM
UCUCUUUGUAUUAUUCUUAUCUCUU (ssRNA) [Ie_S1_P5E.1_K5.1_C5.1_H5.1_A5.1_F5.1_[+8TCT]_T5.1] | 16.7 nM
B1 | > 2300 nM
UCUCUUUGUAUUAUCUUUAUCUCUU (ssRNA) [Ie_S1_P5E.1_K5.1_C5.1_H5.1_A5.1_F5.1_[+8CTT]_T5.1] | 19.2 nM
UCUCUUUGUAUUAUUUUUAUCUCUU (ssRNA) [Ie_S1_P5E.1_K5.1_C5.1_H5.1_A5.1_F5.1_[+8TTT]_T5.1] | 13.4 nM
UCUCUUUGUAUUACUCUUUAUCUCUU (ssRNA) [Ie_S1_P5E.1_K5.1_C5.1_H5.1_A5.1_[+7CTCT]_F5.1_T5.1] | 98.9 nM
UCUCUUUGUAUUAUCUCUUAUCUCUU (ssRNA) [Ie_S1_P5E.1_K5.1_C5.1_H5.1_A5.1_[+7TCTC]_F5.1_T5.1] | 22.2 nM
UCUCUUUGUAUUACCUCUUAUCUCUU (ssRNA) [Ie_S1_P5E.1_K5.1_C5.1_H5.1_A5.1_[+7CCTC]_F5.1_T5.1] | 428 nM
UCUCUUUGUAUUAUUCCUUAUCUCUU (ssRNA) [Ie_S1_P5E.1_K5.1_C5.1_H5.1_A5.1_[+7TTCC]_F5.1_T5.1] | 13.8 nM
UCUCUUUGUAUUACCCUUUAUCUCUU (ssRNA) [Ie_S1_P5E.1_K5.1_C5.1_H5.1_A5.1_[+7CCCT]_F5.1_T5.1] | 304 nM
UCUCUUUGUAUUAUCUCUUUAUCUCUU (ssRNA) [Ie_S1_P5E.1_K5.1_C5.1_H5.1_A5.1_[+7TCTCT]_F5.1_T5.1] | 40.6 nM
UCUCUUUGUAUUACCUCUUUAUCUCUU (ssRNA) [Ie_S1_P5E.1_K5.1_C5.1_H5.1_A5.1_[+7CCTCT]_F5.1_T5.1] | 412 nM
UCUCUUUGUAUUAUUCCUUUAUCUCUU (ssRNA) [Ie_S1_P5E.1_K5.1_C5.1_H5.1_A5.1_[+7TTCCT]_F5.1_T5.1] | 16.7 nM
B2 | 15.7 nM
UCUCUUUGUAUUACCCUUUUAUCUCUU (ssRNA) [Ie_S1_P5E.1_K5.1_C5.1_H5.1_A5.1_[+7CCCTT]_F5.1_T5.1] | 143 nM
UCUCUUUGUAUUAUCCUAUCUCUU (ssRNA) [Ie_S1_P5E.1_K5.1_C5.1_H5.1_A5.1_F5.1_[+8CC]_T5.1] | 26.3 nM
UCUCUUUGUAUUAUUCUAUCUCUU (ssRNA) [Ie_S1_P5E.1_K5.1_C5.1_H5.1_A5.1_F5.1_[+8TC]_T5.1] | 19.9 nM
UCUCUUUGUAUUAUCCCUAUCUCUU (ssRNA) [Ie_S1_P5E.1_K5.1_C5.1_H5.1_A5.1_F5.1_[+8CCC]_T5.1] | 33.8 nM
UCUCUUUGUAUUAUCUCUAUCUCUU (ssRNA) [Ie_S1_P5E.1_K5.1_C5.1_H5.1_A5.1_F5.1_[+8CTC]_T5.1] | 28.6 nM
UCUCUUUGUAUUAUUCCUAUCUCUU (ssRNA) [Ie_S1_P5E.1_K5.1_C5.1_H5.1_A5.1_F5.1_[+9CCT]_T5.1] | 25.5 nM
UCUCUUUGUAUUAUUUCUAUCUCUU (ssRNA) [Ie_S1_P5E.1_K5.1_C5.1_H5.1_A5.1_F5.1_[+8TTC]_T5.1] | 18.2 nM
UCUCUUUGUAUUAUUCUCUAUCUCUU (ssRNA) [Ie_S1_P5E.1_K5.1_C5.1_H5.1_A5.1_F5.1_[+8TCTC]_T5.1] | 17.8 nM
UCUCUUUGUAUUAUCCUCUAUCUCUU (ssRNA) [Ie_S1_P5E.1_K5.1_C5.1_H5.1_A5.1_F5.1_[+8CCTC]_T5.1] | 31.9 nM
UCUCUUUGUAUUAUUUCCUAUCUCUU (ssRNA) [Ie_S1_P5E.1_K5.1_C5.1_H5.1_A5.1_F5.1_[+8TTCC]_T5.1] | 15 nM
B3 | 2130 nM
